Test results published in paper PMC2912355 (Molecular Biology of the Cell, 2010).

B1: IFT70/CrDYF-1 (natural protein, C. reinhardtii (endogenous in flagella), UniProt A8ITN7 1-647, looked up)
chain: MAFFQQPARPIAEGQYTQTIYTLIKEQKFAEAIQHLQYQLQNVPESRAALSLLGYCYYYTGQYDMASQMYEQLVTLYPSNEDYKLYYAQSLYKGGMYPEASKAVVKVEGHQKAVTTLLVACSYEQDDLTGCRRQLDKCAPEDPDTMVNTGCIMFKEGKFEAARQKFNDAVQALGYQPELLYNIALCYYKTKQFGPALKHLAEIIEKAVREHPELSVGSNTDGMEVRSVGNSQTLKETALIEAFNLKAAIEYTMKNVEAAKEALTDMPPRAEEELDPVTLHNSALINMDSDPTGGFKKLNFLLQSPPFPPETFANLLLLYCKPSHGFYDLAADVLAENPQYAGKLLSPDLYDYLQAAIGRYKSPEEAFRRFDELATRHVEQLRRLTKQIQDARIARDNDAIKRAINEYDEALEAYIPGLMAMASIYWDMELYSNVEKIFRQSAEFCSEHEVWKLNVAHTFFMQDNHYKEAIRYYEPVVKKNADNLLGVTAIVLANLCVSYIMTSQNEEAEELMRKVEKEEERSSMQDPDKPCFHLCIINLVIGTLYCAKGNYEFGVSRIIKSLEPYDKKLETDTWYYAKRCFLALIENLAKHMIVLKDSSFTEIMAFLNEAEKHGKDIRVVFNEGKHQSRTIASEARMLKKMFLKLRD

How the values were obtained:
[1] = molecular target: Strep-II-Tag IFT46 (C. reinhardtii) (UniProt A2T2X4); assay: pull-down
IFT72 = molecular target: T1, IFT72 (C. reinhardtii (endogenous in flagella), UniProt Q6RCE1 1-641); assay: co-sedimentation
T1 sequence (looked up): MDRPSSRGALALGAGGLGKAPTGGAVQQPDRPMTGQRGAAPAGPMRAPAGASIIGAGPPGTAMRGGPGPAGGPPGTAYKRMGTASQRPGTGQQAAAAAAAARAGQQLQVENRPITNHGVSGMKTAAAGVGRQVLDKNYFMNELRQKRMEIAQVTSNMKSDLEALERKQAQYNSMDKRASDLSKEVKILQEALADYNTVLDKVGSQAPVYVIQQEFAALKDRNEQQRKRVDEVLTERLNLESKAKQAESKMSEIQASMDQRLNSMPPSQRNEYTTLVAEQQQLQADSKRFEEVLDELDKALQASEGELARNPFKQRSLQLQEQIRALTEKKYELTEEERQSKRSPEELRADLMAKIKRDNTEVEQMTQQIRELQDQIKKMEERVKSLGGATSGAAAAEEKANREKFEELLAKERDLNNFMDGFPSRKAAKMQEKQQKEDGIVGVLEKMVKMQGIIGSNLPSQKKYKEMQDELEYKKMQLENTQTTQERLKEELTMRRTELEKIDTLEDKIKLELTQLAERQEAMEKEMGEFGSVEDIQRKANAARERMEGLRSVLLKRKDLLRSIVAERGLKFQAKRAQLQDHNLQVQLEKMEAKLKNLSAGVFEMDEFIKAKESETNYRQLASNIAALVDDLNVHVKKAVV

IFT57 = molecular target: T2, IFT57 (C. reinhardtii (endogenous in flagella), UniProt Q2XQY7 1-469); assay: co-sedimentation
T2 sequence (looked up): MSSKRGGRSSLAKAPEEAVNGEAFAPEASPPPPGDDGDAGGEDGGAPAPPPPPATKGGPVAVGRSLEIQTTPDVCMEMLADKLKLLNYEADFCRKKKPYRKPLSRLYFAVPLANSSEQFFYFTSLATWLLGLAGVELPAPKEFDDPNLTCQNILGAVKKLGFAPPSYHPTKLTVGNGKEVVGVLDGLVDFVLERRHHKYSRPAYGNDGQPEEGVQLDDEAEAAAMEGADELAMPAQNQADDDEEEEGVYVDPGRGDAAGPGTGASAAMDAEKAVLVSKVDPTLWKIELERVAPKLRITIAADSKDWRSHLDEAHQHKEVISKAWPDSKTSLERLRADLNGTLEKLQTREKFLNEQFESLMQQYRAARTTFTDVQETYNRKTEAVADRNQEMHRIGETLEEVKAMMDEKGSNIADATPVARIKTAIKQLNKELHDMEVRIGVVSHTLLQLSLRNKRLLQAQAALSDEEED

Sequence of Strep-II-Tag IFT46 (C. reinhardtii) (A2T2X4 whole entry): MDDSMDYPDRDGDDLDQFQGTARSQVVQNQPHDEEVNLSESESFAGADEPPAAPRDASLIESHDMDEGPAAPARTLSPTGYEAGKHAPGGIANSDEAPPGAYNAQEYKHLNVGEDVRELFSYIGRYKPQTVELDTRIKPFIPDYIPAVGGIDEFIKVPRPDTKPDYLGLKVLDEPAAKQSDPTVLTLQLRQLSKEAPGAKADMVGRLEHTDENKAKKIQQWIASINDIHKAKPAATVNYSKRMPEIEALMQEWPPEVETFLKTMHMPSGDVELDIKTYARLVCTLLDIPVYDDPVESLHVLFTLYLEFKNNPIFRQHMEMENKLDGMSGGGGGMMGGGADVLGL

Molecule	stoichiometry N [1]	stoichiometry N (IFT72)	stoichiometry N (IFT57)
MBP-IFT70/CrDYF-1 (natural protein)	1		
B1		~1	~1
